Our source for the EC50 for killing of Raji-luc cells by CIK effector cells, luciferase read-out values is patent US20220002431A1.

The assay deals with CD20 on Raji cells (CD20-positive human Burkitt's lymphoma cells) (human) (UniProt P11836). Briefly: cell-based or functional assay.
Sequence of CD20 on Raji cells (CD20-positive human Burkitt's lymphoma cells) (human) (P11836 whole entry): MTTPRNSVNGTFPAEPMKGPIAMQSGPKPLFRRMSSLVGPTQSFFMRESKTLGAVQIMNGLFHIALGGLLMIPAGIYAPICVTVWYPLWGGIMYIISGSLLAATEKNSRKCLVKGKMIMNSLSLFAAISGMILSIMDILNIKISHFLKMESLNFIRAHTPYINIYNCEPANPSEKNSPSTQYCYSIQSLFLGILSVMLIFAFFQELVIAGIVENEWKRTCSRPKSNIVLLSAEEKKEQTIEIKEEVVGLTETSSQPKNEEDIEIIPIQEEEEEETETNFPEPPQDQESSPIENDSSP

Consider isotype antibody (negative control), for which the EC50 for killing of Raji-luc cells by CIK effector cells, luciferase read-out amounted to 0.23 µg/mL.
